For two molecules, Kd, koff and kon results are on record in article PMC4260937 (Nature, 2014).

Some targets named below: FFL_001_surf2; FFL_001_surf4; FFL_001_surf1.
Assay in all cases: SPR
(In general: Surface plasmon resonance follows binding to a sensor surface in real time, without labels.)

The next assay concerns the target T1, FFL_001 (synthetic construct (designed scaffold)).
T1 chain: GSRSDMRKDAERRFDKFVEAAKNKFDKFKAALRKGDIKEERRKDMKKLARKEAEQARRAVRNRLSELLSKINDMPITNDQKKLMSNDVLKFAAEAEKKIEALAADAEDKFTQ

For orientation: Kd means the concentration at which binding is half-saturated. A high value points to weaker binding. For orientation: koff means the first-order rate constant of dissociation. A high value points to a short-lived complex. The term kon denotes the second-order rate constant of association. As for motavizumab Fab, the dissociation constant Kd with FFL_001_surf2 came out at 29.6 pM; in the assay with FFL_001_surf4, 32.9 pM; with FFL_001_surf1, 6.32 pM. The koff with FFL_001_surf2 and with FFL_001_surf4 was 0.000158 s⁻¹ each time. The on-rate constant (kon) in the assay with FFL_001_surf2 was 5.32e+06 M⁻¹ s⁻¹; with FFL_001_surf1, 7.43e+06 M⁻¹ s⁻¹.

B1: 17-HD9 IgG (antibody, V domains shown)
VH: QVQLQESGPGLVKPSETLSLTCVVSGGSFSSYYWTWIRQSPGKGLEWIGEMNGNSGYTNYNPSLQSRVTISKDASKNQFSLKLTSLTAADTAVYYCARDAIVMVFTDMRGRVDVWGPGILVTVSS
VL: DIQMSQSPSSLSASVGDTVTITCRASQGISNYLAWYQQKPGKAPKSLIYYTSHLESGVPSRFSGSGSGTDFSLTISSLQPEDFATYYCQQHNSYPRTFGQGTKVEIK
As for B1, the dissociation constant Kd with FFL_001 is roughly 3 pM.
